± gives the standard deviation of the averaged measurements.
System: ATP
Assay: switch fluorescence ratio, 500 uM ATP over buffer (Cy3 cluster intensity, sum of 5 cycles each) (fold (ratio)); higher = stronger signal-on switching upon ATP binding; sequences stand for … in TCGTCGGCAGCGTCAGATGTGTATAAGAGACAGTTTTTTTTTTTTTTTTTTTTTTTTT…TC
Details: aptamer strand: ATP DNA aptamer (quencher-CACCTGGGGGAGTATTGCGGAGGAAGG + anchor), 100 nM annealed; ATP concentration: 500 uM
Summary of the method: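 Imaging in selection buffer was followed by imaging after 15 min with 500 uM ATP at 22 °C, for Cy3-labelled switching-strand clusters annealed to 100 nM quencher-labelled ATP aptamer on a modified Illumina MiSeq flow-cell. Five of these buffer/ATP cycles ran, separated by NaOH stripping and re-annealing. The fluorescence ratio per cluster is summed target-cycle over summed buffer-cycle Cy3 intensity, averaged per switch-domain sequence; clusters outside 100-1000 RFU were removed.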
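Further: ATP exposure 15 min at 22 °C before imaging.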

Sequence	switch fluorescence ratio
CAAAGAGGAT	0.991 ± 0.022
CAAAGCGCGG	0.997 ± 0.055
CAAAGGAGGT	1.03 ± 0.096
CAAAGGATGA	0.988 ± 0.002
CAAATAAGTG	0.9842 ± 0.0088
CAAATAAGTT	1.02 ± 0.029
CAAATAATGA	0.9642 ± 0.0036
CAAATAGCTA	1.0363 ± 0.00014
CAAATCGTTT	0.985 ± 0.038
CAAATGAAGT	1.02 ± 0.018
CAAATGGTTT	1.05 ± 0.08
CAAATGTAGC	1.017 ± 0.0081
CAAATGTTGG	0.983 ± 0.026
CAAATTAGGA	0.9764 ± 0.0073
CAAATTCTGT	1.009 ± 0.009
CAAATTGCTT	1.01 ± 0.038
CAAATTTGGC	0.986 ± 0.027
CAACAACGCG	0.992 ± 0.02
CAACAGTTTT	1 ± 0.012
CAACCGTTTC	1.27 ± 0.028
CAACGGGGCG	0.999 ± 0.028
CAACGGGTTA	0.998 ± 0.0077

Sequence	switch fluorescence ratio
CAACTACGGC	1.09 ± 0.05
CAACTTTACC	1.16 ± 0.027
CAAGAAAGTG	0.9875 ± 0.0071
CAAGACACGT	0.977 ± 0.032
CAAGAGGGGG	0.978 ± 0.043
CAAGAGTGGG	1.01 ± 0.032
CAAGATCTGT	0.9925 ± 0.0031
CAAGATTGTT	1.02 ± 0.017
CAAGCCAGTT	0.9985 ± 0.0043
CAAGCGTTTC	1.06 ± 0.024
CAAGCTTGGG	1 ± 0.034
CAAGGAATGG	0.995 ± 0.035
CAAGGACGAT	1.004 ± 0.0015
CAAGGCATTC	1.32 ± 0.059
CAAGGGGGG	0.977 ± 0.043
CAAGGGGTT	1.02 ± 0.068
CAAGGTAAAG	0.992 ± 0.013
CAAGGTCGTA	1 ± 0.029
CAAGTAAGCG	1.003 ± 0.0011
CAAGTACATG	1.2 ± 0.014
CAAGTAGGTC	0.98 ± 0.061
CAAGTGGTTG	0.984 ± 0.025

Sequence	switch fluorescence ratio
CAAGTGTACG	1.01 ± 0.042
CAAGTTCTGC	0.97 ± 0.053
CAAGTTGGCG	0.995 ± 0.099
CAAGTTTGC	1.08 ± 0.017
CAATAAGTTT	1.01 ± 0.043
CAATACATAT	1.07 ± 0.023
CAATAGCTAT	1.06 ± 0.022
CAATAGTGTG	0.973 ± 0.017
CAATAGTTGT	0.996 ± 0.029
CAATATATCA	0.999 ± 0.022
CAATATTAGA	1.02 ± 0.07
CAATATTTGC	0.975 ± 0.035
CAATCCATTG	0.994 ± 0.024
CAATCCTTTT	1.01 ± 0.018
CAATCTGATA	0.99 ± 0.016
CAATCTGTTA	0.989 ± 0.027
CAATGAGCCT	1.04 ± 0.013
CAATGAGCTT	0.9907 ± 0.0087
CAATGAGGAA	1.02 ± 0.018
CAATGATAGG	0.992 ± 0.017
CAATGATCTT	1.02 ± 0.014
CAATGATGCT	0.935 ± 0.018

Sequence	switch fluorescence ratio
CAATGATGGG	1.0072 ± 0.00052
CAATGCCGAG	0.9895 ± 0.0045
CAATGGAAGA	0.989 ± 0.014
CAATGGCGTA	1.013 ± 0.00084
CAATGGGCGA	0.993 ± 0.011
CAATGGGCTC	1.016 ± 0.0084
CAATGGGGCT	1.02 ± 0.038
CAATGGTAGT	0.9749 ± 0.0024
CAATGTAAGA	0.989 ± 0.012
CAATTAAACC	1.05 ± 0.028
CAATTACTAG	1.01 ± 0.029
CAATTGGGGG	0.9968 ± 0.0078
CAATTTCTGG	0.973 ± 0.015
CAATTTTGCT	0.98 ± 0.019
CAATTTTTAG	1.01 ± 0.023
CAATTTTTCA	1 ± 0.069
CACAAGGGCA	1.028 ± 0.0061
CACAATATCT	1.124 ± 0.0037
CACACCGGCA	1.093 ± 0.0043

Source: the supplement of paper PMC10126150
